Laboratory results taken from paper PMC9068813, “Enhancer RNAs stimulate Pol II pause release by harnessing multivalent interactions to NELF”.

Experiments:
Details in all cases: protein: recombinant; tags: His-tag (Ni-NTA purified); copies: 1;1;1;1
[1] = biological target: NELF double mutant (patch + ΔRRM) (UniProt Q9H3P2;Q8WX92;Q8IXH7;P18615 1-528;1-628;1-590;1-261+333-380, R291Q;K315M;K371M;K372M;K374M;K384M;K388M;R419Q;R506Q;internal_change); assay: EMSA (NELF release from PEC); large molar excess; 20 mM Na-HEPES pH 7.4, 100 mM NaCl, 25 mM KCl, 3 mM MgCl2, 2 mM DTT; assembly 30 °C, eRNA incubation 15-20 min at room temperature; 3.5% native PAGE 0.5x TBE at 4 °C; PEC about 0.1 µM NELF 0.15 µM
[2] = biological target: T1, NELF-EΔRRM complex (NELFΔRRM) (UniProt Q9H3P2;Q8WX92;Q8IXH7;P18615 1-528;1-628;1-590;1-261+333-380, internal_change); assay: EMSA (NELF release from PEC); release not abolished; 20 mM Na-HEPES pH 7.4, 100 mM NaCl, 25 mM KCl, 3 mM MgCl2, 2 mM DTT; assembly 30 °C, eRNA incubation 15-20 min at room temperature; 3.5% native PAGE 0.5x TBE at 4 °C; PEC about 0.1 µM NELF 0.15 µM
[3] = biological target: T1, NELF-EΔRRM complex (NELFΔRRM); assay: EMSA (NELF release from PEC); apparent Kd; NELF in PEC on N1; 20 mM Na-HEPES pH 7.4, 100 mM NaCl, 25 mM KCl, 3 mM MgCl2, 2 mM DTT; assembly 30 °C, eRNA incubation 15-20 min at room temperature; 3.5% native PAGE 0.5x TBE at 4 °C; PEC about 0.1 µM NELF 0.15 µM

T1 sequence (Q9H3P2 whole entry, stated change not applied, chain 1 of 4): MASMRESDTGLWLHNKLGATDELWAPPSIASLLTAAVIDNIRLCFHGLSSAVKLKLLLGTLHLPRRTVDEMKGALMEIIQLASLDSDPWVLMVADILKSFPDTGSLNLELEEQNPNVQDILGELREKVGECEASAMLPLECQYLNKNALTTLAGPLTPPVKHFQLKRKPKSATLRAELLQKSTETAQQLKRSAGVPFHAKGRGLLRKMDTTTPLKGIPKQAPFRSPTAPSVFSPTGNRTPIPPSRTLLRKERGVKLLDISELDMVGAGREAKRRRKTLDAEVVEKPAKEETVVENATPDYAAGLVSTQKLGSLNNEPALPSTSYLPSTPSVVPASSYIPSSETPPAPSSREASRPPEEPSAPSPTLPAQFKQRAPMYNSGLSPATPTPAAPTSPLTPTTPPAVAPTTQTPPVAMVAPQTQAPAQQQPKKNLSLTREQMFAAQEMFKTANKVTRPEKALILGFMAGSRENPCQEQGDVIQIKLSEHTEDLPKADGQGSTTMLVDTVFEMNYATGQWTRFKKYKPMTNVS
T1 sequence (Q8WX92 other isoform, or with tags, fused parts or gaps | mutant, chain 2 of 4): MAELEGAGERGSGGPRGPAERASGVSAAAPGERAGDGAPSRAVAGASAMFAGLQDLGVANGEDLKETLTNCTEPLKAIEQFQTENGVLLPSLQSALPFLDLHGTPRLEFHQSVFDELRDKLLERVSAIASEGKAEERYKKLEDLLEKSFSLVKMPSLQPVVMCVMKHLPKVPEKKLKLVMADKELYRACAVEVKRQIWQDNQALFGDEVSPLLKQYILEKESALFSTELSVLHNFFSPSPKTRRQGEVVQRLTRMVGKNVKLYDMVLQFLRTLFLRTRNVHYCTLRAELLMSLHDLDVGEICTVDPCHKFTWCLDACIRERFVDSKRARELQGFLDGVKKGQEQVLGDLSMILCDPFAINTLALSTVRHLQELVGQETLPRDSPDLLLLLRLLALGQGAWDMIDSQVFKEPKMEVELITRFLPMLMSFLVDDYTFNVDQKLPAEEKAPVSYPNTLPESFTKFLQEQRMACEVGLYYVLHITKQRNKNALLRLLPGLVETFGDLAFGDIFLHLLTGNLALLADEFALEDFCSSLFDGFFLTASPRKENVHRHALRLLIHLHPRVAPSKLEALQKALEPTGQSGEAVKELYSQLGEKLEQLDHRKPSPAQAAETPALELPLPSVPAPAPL
T1 sequence (Q8IXH7 whole entry, stated change not applied, chain 3 of 4): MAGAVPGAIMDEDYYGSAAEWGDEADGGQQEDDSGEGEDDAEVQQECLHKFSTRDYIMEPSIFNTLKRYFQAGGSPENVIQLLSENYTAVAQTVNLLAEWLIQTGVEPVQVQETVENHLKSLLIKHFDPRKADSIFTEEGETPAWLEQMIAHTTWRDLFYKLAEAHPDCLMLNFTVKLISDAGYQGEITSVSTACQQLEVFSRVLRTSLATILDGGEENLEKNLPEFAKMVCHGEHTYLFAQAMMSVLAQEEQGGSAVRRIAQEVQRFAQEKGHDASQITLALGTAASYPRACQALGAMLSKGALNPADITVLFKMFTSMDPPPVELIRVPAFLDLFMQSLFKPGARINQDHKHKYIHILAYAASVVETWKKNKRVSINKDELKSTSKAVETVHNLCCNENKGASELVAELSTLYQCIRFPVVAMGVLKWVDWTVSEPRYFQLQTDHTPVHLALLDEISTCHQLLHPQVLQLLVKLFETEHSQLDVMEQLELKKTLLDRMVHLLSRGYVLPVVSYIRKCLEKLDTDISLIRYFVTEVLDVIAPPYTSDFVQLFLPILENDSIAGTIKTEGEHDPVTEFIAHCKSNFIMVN
T1 sequence (P18615 other isoform, or with tags, fused parts or gaps | mutant, chain 4 of 4): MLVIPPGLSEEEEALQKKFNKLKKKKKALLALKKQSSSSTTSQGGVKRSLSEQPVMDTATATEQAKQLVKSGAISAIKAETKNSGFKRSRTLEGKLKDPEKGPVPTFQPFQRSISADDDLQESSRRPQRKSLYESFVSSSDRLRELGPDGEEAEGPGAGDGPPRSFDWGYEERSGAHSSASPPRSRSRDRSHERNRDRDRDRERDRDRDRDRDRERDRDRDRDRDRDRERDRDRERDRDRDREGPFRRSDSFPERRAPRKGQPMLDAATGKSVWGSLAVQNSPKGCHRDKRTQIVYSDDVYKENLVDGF
Sequence of NELF double mutant (patch + ΔRRM) (Q9H3P2 whole entry, stated change not applied, chain 1 of 4): as the sequence (Q9H3P2 whole entry, stated change not applied, chain 1 of 4) above
Sequence of NELF double mutant (patch + ΔRRM) (Q8WX92 other isoform, or with tags, fused parts or gaps with the stated changes, chain 2 of 4): as the sequence (Q8WX92 other isoform, or with tags, fused parts or gaps | mutant, chain 2 of 4) above
Sequence of NELF double mutant (patch + ΔRRM) (Q8IXH7 whole entry R291Q/K315M/K371M/K372M/K374M/K384M/K388M/R419Q/R506Q, chain 3 of 4): as the sequence (Q8IXH7 whole entry, stated change not applied, chain 3 of 4) above, with R291Q, K315M, K371M, K372M, K374M, K384M, K388M, R419Q, R506Q counted along it
Sequence of NELF double mutant (patch + ΔRRM) (P18615 other isoform, or with tags, fused parts or gaps with the stated changes, chain 4 of 4): as the sequence (P18615 other isoform, or with tags, fused parts or gaps | mutant, chain 4 of 4) above

B1: Nr4a1-(a) eRNA 1-200 (structured_RNA)
RNA: GCGGUGAGAGUGAUUUUGUAACUCUAAAGUUACAGAGGGUUUUGUUGUGUUUUUAAUCAAGAGCCCUGGUUUUGAUUUGUGGGUAAUCUUUCUUUAAACCUCGCCCAUUUCCGGCCUGGUGACCUGGGCCACUUUCUCAUGUUGACCCAGAUGAUCCUCAGUAGCAAGAACAAAAGGACAACAGAUGUGGAAACACUCAA
- binding result [1]: no binding

B2: Nr4a1-(a) eRNA 1-100 (structured_RNA)
RNA: GCGGUGAGAGUGAUUUUGUAACUCUAAAGUUACAGAGGGUUUUGUUGUGUUUUUAAUCAAGAGCCCUGGUUUUGAUUUGUGGGUAAUCUUUCUUUAAACC
- binding result [2]: binds

B3: Nr4a1-(b) eRNA 1-200 (structured_RNA)
RNA: AGUAGGGGCAUGGCUCGCCCGAGGCUCGGUGCUGCCCCGCCGCCCGCCGCGUUCCUUCCGGCUUGGUGUUCCGGUGGCGGGACCAGGGAAGGGAAGCUCGGGCCAAAUCCGGUCUCGGGCGAGGUGACAGAAAUUUGGAAUCUGACACCGGAGGAUGGCUGAGCUCCGGCUCCUCUGGGAGUGCAAUUACGGACUUCGCA
- binding result [1]: no binding

B4: Arc eRNA 1-100 (structured_RNA)
RNA: AAAACACAGCCGCCAGGGUGGGGGUGGCAGCCUUGAACGCCACCCUCUAACUGGCAUGGGCAUCUGAACUCUCAGCUCUGGGGGUGUCUCAUCGGCCAGC
- Kd [3]: 7.8 µM

B5: Arc eRNA 1-200 (structured_RNA)
RNA: AAAACACAGCCGCCAGGGUGGGGGUGGCAGCCUUGAACGCCACCCUCUAACUGGCAUGGGCAUCUGAACUCUCAGCUCUGGGGGUGUCUCAUCGGCCAGCUGGCAGUAGCCCCCCCAACCCCACCCCUGAUGGAGAACUGCUCCUGUAUGAUCCAGCCCAGUGGGCGCACAGGGAGUUGGUAGGUGGGCACUCAGACUGG
- Kd [3]: 0.33 µM
- binding result [1]: no binding
